Measurements taken from publication PMC12814185, “Receptor-Mediated Shuttling of a D‑Amino Acid Peptide Achieves High Nanomolar Cytosolic Concentrations” (Journal of the American Chemical Society, 2025).
[ ]: non-standard residue; d: D form. sulfo‑Cy5 = sulfo-cyanine 5 dye; Cit = NC(=O)NCCC[C@H](N)C(=O)O; Pra = C#CC[C@H](N)C(=O)O; (EG)3 = spacer

Assays:
[1] = target: T1, chemokine-like receptor 1 (CMKLR1) (UniProt Q99788 1-373); experiment: cell-based or functional assay
T1 sequence (looked up): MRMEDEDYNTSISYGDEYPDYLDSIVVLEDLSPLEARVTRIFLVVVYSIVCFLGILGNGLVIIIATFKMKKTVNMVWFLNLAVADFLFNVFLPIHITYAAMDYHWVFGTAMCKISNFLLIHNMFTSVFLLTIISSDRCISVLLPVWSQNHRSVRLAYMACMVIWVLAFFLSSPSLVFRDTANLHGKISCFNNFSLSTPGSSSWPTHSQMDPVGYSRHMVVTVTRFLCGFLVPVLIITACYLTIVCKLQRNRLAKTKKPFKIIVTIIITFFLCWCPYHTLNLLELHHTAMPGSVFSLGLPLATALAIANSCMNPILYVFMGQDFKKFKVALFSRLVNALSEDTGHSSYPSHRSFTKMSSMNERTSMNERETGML

[2] = target: T2, recombinant human GST-MDM2 (human, UniProt Q00987 1-491); experiment: fluorescence polarisation; conditions: both partners purified
T2 construct: source: recombinant
T2 sequence (Q00987 whole entry): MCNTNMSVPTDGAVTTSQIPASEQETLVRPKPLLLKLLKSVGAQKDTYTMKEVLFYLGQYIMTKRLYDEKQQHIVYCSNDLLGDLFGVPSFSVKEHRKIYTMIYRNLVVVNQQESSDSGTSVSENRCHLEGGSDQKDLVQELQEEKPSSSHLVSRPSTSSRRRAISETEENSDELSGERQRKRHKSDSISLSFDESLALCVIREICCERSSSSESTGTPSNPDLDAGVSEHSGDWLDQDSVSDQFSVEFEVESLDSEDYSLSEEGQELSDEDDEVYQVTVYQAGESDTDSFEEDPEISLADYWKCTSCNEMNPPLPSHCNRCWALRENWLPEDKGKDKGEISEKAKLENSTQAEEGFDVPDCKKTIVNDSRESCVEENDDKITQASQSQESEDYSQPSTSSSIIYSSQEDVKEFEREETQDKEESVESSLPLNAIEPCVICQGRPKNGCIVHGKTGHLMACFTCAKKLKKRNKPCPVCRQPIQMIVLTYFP

B1: Cy5-PMIγ-cC9 (peptide)
chain: {sulfo‑Cy5-(EG)3}-[dD][dW][dW][dP][dL][dA][dF][dE][dA][dL][dL][dR]GEV[Cit]-{(EG)3-Pra-NH2}
modifications: not fully specified (bridges); also: CuAAC triazole link from Pra to azidolysine of the cC9 chain
- Ca2+ flux assay, EC50 [1]: 185 nM
- Kd [2]: 90 nM
